Measurements from US20130281360A1.
Read-outs that look alike come from different tables or passages of the source.

How the values were obtained:
[1] = biological target: detergent-solubilized full-length His-tagged E. coli SPase, P84S variant (Escherichia coli) (UniProt P00803); assay: equilibrium binding by the increase of arylomycin fluorescence (ex 320 nm, em 410 nm) with detergent-solubilized full-length E. coli SPase
[2] = biological target: detergent-solubilized full-length His-tagged E. coli SPase, wild type (Escherichia coli) (UniProt P00803); assay: as above
[3] = biological target: P84S variant of the truncated E. coli SPase (Δ2-75) (Escherichia coli K-12 MG1655) (UniProt P00803); assay: steady-state binding by increase of arylomycin fluorescence (ex 320 nm, em 410 nm), SPase in n-octyl-β-glucopyranoside micelles
[4] = biological target: truncated wild type E. coli SPase that lacks the N-terminal membrane helices (Δ2-75) (Escherichia coli K-12 MG1655) (UniProt P00803); assay: as above
[5] = biological target: S. epidermidis SpsIB S29P, in strain PAS9001 (Staphylococcus epidermidis RP62A); assay: cell-based or functional assay
[6] = biological target: E. coli SPase (LepB) P84S, in strain PAS0232 (Escherichia coli K-12 MG1655) (UniProt P00803); assay: cell-based or functional assay
[7] = biological target: E. coli MG1655 SPase (LepB) with Thr at residue 84, in the strain (Escherichia coli K-12 MG1655) (UniProt P00803); assay: cell-based or functional assay
[8] = biological target: E. coli MG1655 SPase (LepB) with Glu at residue 84, in the strain (Escherichia coli K-12 MG1655) (UniProt P00803); assay: cell-based or functional assay
[9] = biological target: E. coli MG1655 SPase (LepB) with Lys at residue 84, in the strain (Escherichia coli K-12 MG1655) (UniProt P00803); assay: cell-based or functional assay
[10] = biological target: E. coli MG1655 SPase (LepB) with Met at residue 84, in the strain (Escherichia coli K-12 MG1655) (UniProt P00803); assay: cell-based or functional assay
[11] = biological target: P. aeruginosa SPase (LepB) P84S, in strain PAS2006 (Pseudomonas aeruginosa PAO1) (UniProt Q9I5G7); assay: cell-based or functional assay
[12] = biological target: E. coli MG1655 SPase (LepB) with His at residue 84, in the strain (Escherichia coli K-12 MG1655) (UniProt P00803); assay: cell-based or functional assay
[13] = biological target: E. coli MG1655 SPase (LepB) with Asp at residue 84, in the strain (Escherichia coli K-12 MG1655) (UniProt P00803); assay: cell-based or functional assay
[14] = biological target: E. coli MG1655 SPase (LepB) with Gly at residue 84, in the strain (Escherichia coli K-12 MG1655) (UniProt P00803); assay: cell-based or functional assay
[15] = biological target: E. coli MG1655 SPase (LepB) with Ala at residue 84, in the strain (Escherichia coli K-12 MG1655) (UniProt P00803); assay: cell-based or functional assay
[16] = biological target: E. coli MG1655 SPase (LepB) with Leu at residue 84, in the strain (Escherichia coli K-12 MG1655) (UniProt P00803); assay: cell-based or functional assay
[17] = biological target: S. aureus SPase (SpsB) P29S, in strain PAS8001 (Staphylococcus aureus NCTC 8325); assay: cell-based or functional assay
[18] = biological target: E. coli MG1655 SPase (LepB) with Ile at residue 84, in the strain (Escherichia coli K-12 MG1655) (UniProt P00803); assay: cell-based or functional assay
[19] = biological target: S. epidermidis SpsIB S31P, in strain PAS9002 (Staphylococcus epidermidis RP62A); assay: cell-based or functional assay
[20] = biological target: S. epidermidis RP62A signal peptidase IB (SpsIB), wild type, in the strain (Staphylococcus epidermidis RP62A); assay: cell-based or functional assay
[21] = biological target: E. coli MG1655 SPase (LepB), wild type, in the strain (Escherichia coli K-12 MG1655) (UniProt P00803); assay: cell-based or functional assay
[22] = biological target: E. coli MG1655 SPase (LepB) with Val at residue 84, in the strain (Escherichia coli K-12 MG1655) (UniProt P00803); assay: cell-based or functional assay
[23] = biological target: E. coli MG1655 SPase (LepB) with Tyr at residue 84, in the strain (Escherichia coli K-12 MG1655) (UniProt P00803); assay: cell-based or functional assay
[24] = biological target: E. coli MG1655 SPase (LepB) with Phe at residue 84, in the strain (Escherichia coli K-12 MG1655) (UniProt P00803); assay: cell-based or functional assay
[25] = biological target: E. coli MG1655 SPase (LepB) with Trp at residue 84, in the strain (Escherichia coli K-12 MG1655) (UniProt P00803); assay: cell-based or functional assay
[26] = biological target: S. aureus NCTC 8325 SPase (SpsB), wild type, in the strain (Staphylococcus aureus NCTC 8325); assay: cell-based or functional assay
[27] = biological target: P. aeruginosa PAO1 SPase (LepB) P84L, in the strain lepB(P84L) P. aeruginosa PAO1 (Pseudomonas aeruginosa PAO1) (UniProt Q9I5G7); assay: cell-based or functional assay
[28] = biological target: E. coli MG1655 SPase (LepB) with Gln at residue 84, in the strain (Escherichia coli K-12 MG1655) (UniProt P00803); assay: cell-based or functional assay
[29] = biological target: E. coli MG1655 SPase (LepB) with Asn at residue 84, in the strain (Escherichia coli K-12 MG1655) (UniProt P00803); assay: cell-based or functional assay
[30] = biological target: E. coli MG1655 SPase (LepB) with Cys at residue 84, in the strain (Escherichia coli K-12 MG1655) (UniProt P00803); assay: cell-based or functional assay
[31] = biological target: P. aeruginosa PAO1 SPase (LepB), wild type, in the strain (Pseudomonas aeruginosa PAO1) (UniProt Q9I5G7); assay: cell-based or functional assay
[32] = biological target: E. coli MG1655 SPase (LepB) with Arg at residue 84, in the strain (Escherichia coli K-12 MG1655) (UniProt P00803); assay: cell-based or functional assay
[33] = biological target: full-length His-tagged S. aureus SPase (SpsB), wild type (Staphylococcus aureus NCTC 8325); assay: equilibrium binding by the increase of arylomycin fluorescence (ex 320 nm, em 410 nm) with full-length His-tagged S. aureus SPase
[34] = biological target: full-length His-tagged S. aureus SPase (SpsB), P29S mutant (Staphylococcus aureus NCTC 8325); assay: as above
[35] = biological target: detergent-solubilized full-length His-tagged E. coli SPase, P84S variant (Escherichia coli) (UniProt P00803); assay: steady-state binding by increase of arylomycin fluorescence, detergent-solubilized full-length SPase
[36] = biological target: detergent-solubilized full-length His-tagged E. coli SPase, wild type (Escherichia coli) (UniProt P00803); assay: as above
[37] = biological target: E. coli MG1655 SPase (LepB) with His at residue 84, in the strain (Escherichia coli K-12 MG1655) (UniProt P00803); assay: cell-based or functional assay; remark: listed apart in the source
[38] = biological target: E. coli MG1655 SPase (LepB) with Phe at residue 84, in the strain (Escherichia coli K-12 MG1655) (UniProt P00803); assay: cell-based or functional assay; remark: listed apart in the source
[39] = biological target: full-length His-tagged S. aureus SPase (SpsB), wild type (Staphylococcus aureus NCTC 8325); assay: steady-state binding by increase of arylomycin fluorescence, full-length SPase, buffer with 10% glycerol
[40] = biological target: full-length His-tagged S. aureus SPase (SpsB), P29S mutant (Staphylococcus aureus NCTC 8325); assay: as above
[41] = biological target: P84S variant of the truncated E. coli SPase (Δ2-75) (Escherichia coli K-12 MG1655) (UniProt P00803); assay: steady state binding by the increase of arylomycin fluorescence (ex 320 nm, em 410 nm) with soluble N-terminally truncated E. coli SPase
[42] = biological target: truncated wild type E. coli SPase that lacks the N-terminal membrane helices (Δ2-75) (Escherichia coli K-12 MG1655) (UniProt P00803); assay: as above

With arylomycin C16 (peptide) the EC50 (read off the curve) [1] was 10 nM, the Kd [1] was 5.73 nM and the EC50 (read off the curve) [2] was 100 nM. It also gave a Kd [3] of 39 nM, a Kd [4] of 979 nM and an MIC (µg/mL) of arylomycin C16 for the strain [5] of 8 µg/mL. For the same substance, the MIC (µg/ml) of arylomycin C16 for the resistant S. epidermidis strain [5] was 8 µg/mL, the fold elevation of the MIC over the wild type strain [5] was 32 fold and the MIC (µg/mL) of arylomycin C16 for the strain [6] was 2 µg/mL. The MIC of arylomycin C16 for the E. coli strain with this residue 84 [6] was < 16 µg/mL, the MIC of arylomycin C16 for the E. coli strain with this residue 84 [7] was < 16 µg/mL and the MIC of arylomycin C16 for the E. coli strain with this residue 84 [8] was < 16 µg/mL. For the same substance, the MIC of arylomycin C16 for the E. coli strain with this residue 84 [9] was < 16 µg/mL, the MIC of arylomycin C16 for the E. coli strain with this residue 84 [10] was < 16 µg/mL and the MIC (µg/mL) of arylomycin C16 for the strain [11] was 8 µg/mL. The MIC of arylomycin C16 for the E. coli strain with this residue 84 [12] was < 16 µg/mL, the MIC of arylomycin C16 for the E. coli strain with this residue 84 [13] was < 16 µg/mL and the MIC of arylomycin C16 for the E. coli strain with this residue 84 [14] was < 16 µg/mL. The MIC of arylomycin C16 for the E. coli strain with this residue 84 [15] was < 16 µg/mL, the MIC (µg/ml) of arylomycin C16 for the sensitive E. coli strain [16] was 0.5 µg/mL and the MIC of arylomycin C16 for the E. coli strain with this residue 84 [16] was < 16 µg/mL. The MIC (µg/mL) of arylomycin C16 for the strain [17] was 2 µg/mL, the MIC (µg/ml) of arylomycin C16 for the sensitive S. aureus strain [17] was 2 µg/mL and the MIC of arylomycin C16 for the E. coli strain with this residue 84 [18] was < 16 µg/mL. The MIC (µg/mL) of arylomycin C16 for the strain [19] was > 128 µg/mL, the fold elevation of the MIC over the wild type strain [19] was > 256 fold and the MIC (µg/mL) of arylomycin C16 for the strain [20] was 0.25 µg/mL. For the same substance, the MIC (µg/ml) of arylomycin C16 for the sensitive S. epidermidis strain [20] was 0.5 µg/mL, the MIC (µg/mL) of arylomycin C16 for the strain [21] was > 128 µg/mL and the MIC (µg/ml) of arylomycin C16 for the resistant E. coli strain [21] was > 64 µg/mL. The MIC of arylomycin C16 for the E. coli strain with this residue 84 [21] was > 256 µg/mL, the MIC of arylomycin C16 for the E. coli strain with this residue 84 [22] was < 16 µg/mL and the MIC of arylomycin C16 for the E. coli strain with this residue 84 [23] was < 16 µg/mL. For the same substance, the MIC of arylomycin C16 for the E. coli strain with this residue 84 [24] was < 16 µg/mL, the MIC of arylomycin C16 for the E. coli strain with this residue 84 [25] was < 16 µg/mL and the MIC (µg/mL) of arylomycin C16 for the strain [26] was > 128 µg/mL. The MIC (µg/ml) of arylomycin C16 for the resistant S. aureus strain [26] was > 64 µg/mL, the MIC (µg/ml) of arylomycin C16 for the sensitive P. aeruginosa strain [27] was 8 µg/mL and the MIC of arylomycin C16 for the E. coli strain with this residue 84 [28] was < 16 µg/mL. For the same substance, the MIC of arylomycin C16 for the E. coli strain with this residue 84 [29] was < 16 µg/mL, the MIC of arylomycin C16 for the E. coli strain with this residue 84 [30] was < 16 µg/mL and the MIC (µg/mL) of arylomycin C16 for the strain [31] was > 128 µg/mL. For the same substance, the MIC (µg/ml) of arylomycin C16 for the resistant P. aeruginosa strain [31] was > 64 µg/mL, the MIC of arylomycin C16 for the E. coli strain with this residue 84 [32] was < 16 µg/mL and the EC50 (read off the curve) [33] was 2000 nM. For the same substance, the EC50 (read off the curve) [34] was 200 nM, the Kd [35] was 5.7 nM and the Kd [36] was 60 nM. For the same substance, the MIC of arylomycin C16 for the E. coli strain with this residue 84 [37] was 4 µg/mL, the MIC of arylomycin C16 for the E. coli strain with this residue 84 [38] was 2 µg/mL and the Kd [39] was 1280 nM. For the same substance, the Kd [40] was 130 nM, the EC50 (read off the curve) [41] was 100 nM and the EC50 (read off the curve) [42] was 2000 nM.
